Test results as given in publication PMC10704371.

Target: T1, N-terminal DNA-binding domain (2-241) of S. pombe Fep1, 6xHis-tagged (S. pombe) (UniProt Q10134)
T1 sequence: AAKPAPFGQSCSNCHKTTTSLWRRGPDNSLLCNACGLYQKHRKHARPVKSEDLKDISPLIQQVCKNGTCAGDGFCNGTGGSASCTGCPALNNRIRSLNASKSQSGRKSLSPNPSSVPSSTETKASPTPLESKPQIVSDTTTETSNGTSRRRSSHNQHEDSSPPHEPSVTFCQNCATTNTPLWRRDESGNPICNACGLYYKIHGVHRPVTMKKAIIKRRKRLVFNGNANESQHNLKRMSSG

B1: Schizosaccharomyces pombe monothiol glutaredoxin Grx4, full length, 6xHis-tagged (natural protein)
chain: MSVEITFVEQFQEILQNGKEQIILLNFYAPWAAPCKQMNQVFDQFAKDTKNAVFLKIEAEKFSDIAESFDVNAVPLFVLIHGAKVLARISGANPQKLKAAIDEYIQPLISQISSTNASVETQVNSVQTTNTTSNTSKAPNGLDSELNERLSTLTNAHNVMLFLKGTPSEPACGFSRKLVGLLREQNVQYGFFNILADDSVRQGLKVFSDWPTFPQLYIKGEFVGGLDIVSEMIENGELQEMLPN
Kex of [2Fe-2S] cluster transfer from [2Fe-2S],Zn-Fep1-DBD to apo-Grx4 (CD-monitored titration, 5 mM GSH): 5.3 | Kex of [2Fe-2S] cluster transfer from [2Fe-2S],Zn-Fep1-DBD to apo-Grx4 added as a 1:1 mixture with apo-Fra2 (CD-monitored titration, 5 mM GSH): 36.1
